These results are taken from the supplement of paper PMC9112550, “Optimization of the antimicrobial peptide Bac7 by deep mutational scanning” (BMC Biology, 2022).
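Further: peptides expressed intracellularly from a pBAD plasmid library in pooled LB shake-flask culture, induced with 0.3% L-arabinose, DNA abundance read by NGS, three biological replicates, DESeq2 with apeglm shrinkage.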

The data set relates to Escherichia coli TOP10. Briefly: shrunken log2 fold change of peptide-encoding DNA abundance (4.5 h post-induction vs induction); higher = less antimicrobial activity (less host growth inhibition). The settings on record: time post-induction: 4.5 h; library: site-saturation at positions 5, 18, 19, 20.
As for RRIRNRPPRLPRPRPRPIVKPRP, the “shrunken log2 fold change” value is -0.339.

RRIRGRPPRLPRPRPRPYHGPRP: the “shrunken log2 fold change” value was -0.459. The result for RRIRARPPRLPRPRPRPKVAPRP reads 0.698. RRIRIRPPRLPRPRPRPVSIPRP: the “shrunken log2 fold change” value was -0.624. With RRIRERPPRLPRPRPRPTEVPRP, the “shrunken log2 fold change” value was -0.121. For RRIRDRPPRLPRPRPRPLCLPRP, the “shrunken log2 fold change” value was 0.0562.

With RRIRIRPPRLPRPRPRPSGWPRP, the “shrunken log2 fold change” value came out at 0.037. For RRIRERPPRLPRPRPRPGHYPRP, the “shrunken log2 fold change” value is -0.121. Regarding RRIRMRPPRLPRPRPRPAPSPRP, the “shrunken log2 fold change” value was 1.28. Turning to RRIRNRPPRLPRPRPRPYIQPRP, the “shrunken log2 fold change” value is -0.244. As for RRIRKRPPRLPRPRPRPAGMPRP, the “shrunken log2 fold change” value was determined as 0.042. The result for RRIRKRPPRLPRPRPRPHYCPRP reads -0.00783; that for RRIRWRPPRLPRPRPRPQWCPRP, -0.0974; that for RRIRMRPPRLPRPRPRPNRMPRP, -0.189. As to RRIRNRPPRLPRPRPRPSCDPRP, the “shrunken log2 fold change” value was -0.179. Take RRIRARPPRLPRPRPRPVEVPRP: the “shrunken log2 fold change” value stood at 0.236. Take RRIRMRPPRLPRPRPRPGAMPRP: the “shrunken log2 fold change” value is 0.609.

As for RRIRVRPPRLPRPRPRPWKCPRP, the “shrunken log2 fold change” value was -0.173. Turning to RRIRVRPPRLPRPRPRPDACPRP, the “shrunken log2 fold change” value was -0.11. Consider RRIRLRPPRLPRPRPRPWRQPRP, for which the “shrunken log2 fold change” value is -0.121. RRIRRRPPRLPRPRPRPQQSPRP: the “shrunken log2 fold change” value turned out to be 0.273.

For RRIRSRPPRLPRPRPRPGMIPRP, the “shrunken log2 fold change” value is -0.296. With RRIRMRPPRLPRPRPRPQCHPRP, the “shrunken log2 fold change” value was 0.0857. In the case of RRIRHRPPRLPRPRPRPMSHPRP it was -0.0479; in that of RRIRERPPRLPRPRPRPHPSPRP, -0.222; in that of RRIRKRPPRLPRPRPRPSTMPRP, -0.145. For the sequence RRIRARPPRLPRPRPRPSGRPRP, the “shrunken log2 fold change” value is 0.0751. Take RRIRKRPPRLPRPRPRPLWCPRP: the “shrunken log2 fold change” value came to 0.0281. Regarding RRIRLRPPRLPRPRPRPPANPRP, the “shrunken log2 fold change” value came to 0.592. In the case of RRIRSRPPRLPRPRPRPLNHPRP, the “shrunken log2 fold change” value is -0.554. Take RRIRCRPPRLPRPRPRPCDAPRP: the “shrunken log2 fold change” value was -0.466.

For RRIRRRPPRLPRPRPRPFQPPRP, the “shrunken log2 fold change” value is 0.331. For RRIRGRPPRLPRPRPRPIEQPRP, the “shrunken log2 fold change” value was 0.109.

As for RRIRTRPPRLPRPRPRPNMSPRP, the “shrunken log2 fold change” value is -0.562. Consider RRIRYRPPRLPRPRPRPGGEPRP, for which the “shrunken log2 fold change” value came out at 0.173. Consider RRIRVRPPRLPRPRPRPKDIPRP, for which the “shrunken log2 fold change” value was -0.642. As for RRIRSRPPRLPRPRPRPHAEPRP, the “shrunken log2 fold change” value was determined as 0.156. As to RRIRGRPPRLPRPRPRPVAGPRP, the “shrunken log2 fold change” value is 1.12. In the case of RRIRTRPPRLPRPRPRPAGWPRP, the “shrunken log2 fold change” value came out at 0.517. As to RRIRTRPPRLPRPRPRPVWCPRP, the “shrunken log2 fold change” value was -0.113. On to RRIRRRPPRLPRPRPRPVMNPRP, for which the “shrunken log2 fold change” value came to 0.0331.

For RRIRVRPPRLPRPRPRPTAYPRP, the “shrunken log2 fold change” value is -0.094. As for RRIRERPPRLPRPRPRPMATPRP, the “shrunken log2 fold change” value is 0.0537.

On to RRIRQRPPRLPRPRPRPPWYPRP, for which the “shrunken log2 fold change” value was -0.226. RRIRVRPPRLPRPRPRPEDLPRP: the “shrunken log2 fold change” value is 0.084.

Take RRIRDRPPRLPRPRPRPLMHPRP: the “shrunken log2 fold change” value came out at 0.164. On to RRIRVRPPRLPRPRPRPVWQPRP, for which the “shrunken log2 fold change” value worked out at 0.148.

As for RRIRTRPPRLPRPRPRPSANPRP, the “shrunken log2 fold change” value is -0.0622. For the sequence RRIRKRPPRLPRPRPRPFGMPRP, the “shrunken log2 fold change” value was -0.00211. As for RRIRPRPPRLPRPRPRPWLEPRP, the “shrunken log2 fold change” value was -0.0732. Take RRIRWRPPRLPRPRPRPYPWPRP: the “shrunken log2 fold change” value is -0.156. In the case of RRIRSRPPRLPRPRPRPGCYPRP it was -0.173; in that of RRIRWRPPRLPRPRPRPTRTPRP, 0.83. For the sequence RRIRERPPRLPRPRPRPFVFPRP, the “shrunken log2 fold change” value is -0.379. Turning to RRIRDRPPRLPRPRPRPVFEPRP, the “shrunken log2 fold change” value is 0.187. Consider RRIRARPPRLPRPRPRPGWHPRP, for which the “shrunken log2 fold change” value amounted to 0.378. Regarding RRIRSRPPRLPRPRPRPGLMPRP, the “shrunken log2 fold change” value was determined as 0.197. In the case of RRIRCRPPRLPRPRPRPHKIPRP, the “shrunken log2 fold change” value was -0.217. Take RRIRYRPPRLPRPRPRPNVRPRP: the “shrunken log2 fold change” value is -0.0227. Consider RRIRSRPPRLPRPRPRPYLSPRP, for which the “shrunken log2 fold change” value is -0.062. With RRIRMRPPRLPRPRPRPGDDPRP, the “shrunken log2 fold change” value was determined as 1.96. In the case of RRIRIRPPRLPRPRPRPTDCPRP, the “shrunken log2 fold change” value is -0.196.

For RRIRWRPPRLPRPRPRPSFSPRP, the “shrunken log2 fold change” value was -0.286. Regarding RRIRQRPPRLPRPRPRPEFIPRP, the “shrunken log2 fold change” value is -0.163.

As for RRIRFRPPRLPRPRPRPGVLPRP, the “shrunken log2 fold change” value is 0.0194.

For the sequence RRIRSRPPRLPRPRPRPSNFPRP, the “shrunken log2 fold change” value was -0.379. Regarding RRIRDRPPRLPRPRPRPGVKPRP, the “shrunken log2 fold change” value was determined as 0.0336. Take RRIRSRPPRLPRPRPRPLAYPRP: the “shrunken log2 fold change” value was 0.0208. The result for RRIRCRPPRLPRPRPRPGKVPRP reads 0.181; that for RRIRFRPPRLPRPRPRPWPSPRP, -0.0611. As for RRIRKRPPRLPRPRPRPLNQPRP, the “shrunken log2 fold change” value is -0.128. With RRIRFRPPRLPRPRPRPRHLPRP, the “shrunken log2 fold change” value is -0.0297. For the sequence RRIRHRPPRLPRPRPRPSRMPRP, the “shrunken log2 fold change” value is -0.518. In the case of RRIRHRPPRLPRPRPRPCRQPRP, the “shrunken log2 fold change” value was -0.035. As for RRIRDRPPRLPRPRPRPCHEPRP, the “shrunken log2 fold change” value was -0.0135. Consider RRIRVRPPRLPRPRPRPFWTPRP, for which the “shrunken log2 fold change” value is -0.427. RRIRMRPPRLPRPRPRPFDAPRP: the “shrunken log2 fold change” value is 0.396. RRIRGRPPRLPRPRPRPTWAPRP: the “shrunken log2 fold change” value came to 0.987. Turning to RRIRERPPRLPRPRPRPCHYPRP, the “shrunken log2 fold change” value was -0.224. For RRIRRRPPRLPRPRPRPLQAPRP, the “shrunken log2 fold change” value was determined as 0.98. Turning to RRIRIRPPRLPRPRPRPLYVPRP, the “shrunken log2 fold change” value is -1.06. In the case of RRIRLRPPRLPRPRPRPFCCPRP it was -0.255; in that of RRIRRRPPRLPRPRPRPKLIPRP, -0.395. With RRIRRRPPRLPRPRPRPQNFPRP, the “shrunken log2 fold change” value is -0.149.

Consider RRIRLRPPRLPRPRPRPVPCPRP, for which the “shrunken log2 fold change” value was -0.239. The result for RRIRLRPPRLPRPRPRPDLWPRP reads 0.774; that for RRIRERPPRLPRPRPRPFWWPRP, 0.239; that for RRIRIRPPRLPRPRPRPHMNPRP, -0.845. As to RRIRSRPPRLPRPRPRPWCIPRP, the “shrunken log2 fold change” value was -0.0292. The result for RRIRYRPPRLPRPRPRPKWNPRP reads -0.483; that for RRIRKRPPRLPRPRPRPGLKPRP, 0.377.
